Patent publication EP3433280B1 (F. Hoffmann-La Roche AG, dated 2023)

Target: T1, HER1 extracellular domain (human, UniProt P00533 25-645)
T1 construct: extracellular domain; also called HER1 coated chip surface
Assay: SPR (Biacore T100), HER1 extracellular domain amine-coupled to CM5, antibody injected at 3.125-50 nM, 1:1 Langmuir model

B1: HER1-binding IgG1 antibody GA201 (antibody, V domains shown)
VH: QVQLVQSGAEVKKPGSSVKVSCKASGFTFTDYKIHWVRQAPGQGLEWMGYFNPNSGYSTYAQKFQGRVTITADKSTSTAYMELSSLRSEDTAVYYCARLSPGGYYVMDAWGQGTTVTVSS
VL: DIQMTQSPSSLSASVGDRVTITCRASQGINNYLNWYQQKPGKAPKRLIYNTNNLQTGVPSRFSGSGSGTEFTLTISSLQPEDFATYYCLQHNSFPTFGQGTKLEIKR
notes: IgG1, produced in 293-F cells; also called GA201 parental unmasked antibody; anti HER1 antibody GA201
Work on B1 yielded a Kd of 1 nM.
